# Assay results as given in patent publication US20160083466A1 (Regeneron, published 2016).
# T1: monkey IL-25 expressed with a C-terminal myc-myc-hexahistidine tag (M. fascicularis (cynomolgus monkey))
# T1 construct: also called monkey IL-25-MMH; MfIL-25-MMH
# T1 chain: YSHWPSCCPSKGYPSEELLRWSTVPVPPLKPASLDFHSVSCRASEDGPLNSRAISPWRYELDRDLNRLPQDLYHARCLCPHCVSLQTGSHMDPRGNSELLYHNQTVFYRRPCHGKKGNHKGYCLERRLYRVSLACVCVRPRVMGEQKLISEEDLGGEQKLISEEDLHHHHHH
# T2: human IL-25 expressed with a C-terminal myc-myc-hexahistidine tag (human)
# T2 construct: also called human IL-25-MMH; hIL-25-MMH
# T2 chain: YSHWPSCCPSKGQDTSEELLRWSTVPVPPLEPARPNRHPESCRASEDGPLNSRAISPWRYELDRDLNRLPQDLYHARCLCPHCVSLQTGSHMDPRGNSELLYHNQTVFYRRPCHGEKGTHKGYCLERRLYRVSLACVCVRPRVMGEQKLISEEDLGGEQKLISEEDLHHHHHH
# T3: mouse IL-25 expressed with a C-terminal myc-myc-hexahistidine tag (mouse)
# T3 construct: also called mouse IL-25-MMH; mIL-25-MMH
# T3 chain: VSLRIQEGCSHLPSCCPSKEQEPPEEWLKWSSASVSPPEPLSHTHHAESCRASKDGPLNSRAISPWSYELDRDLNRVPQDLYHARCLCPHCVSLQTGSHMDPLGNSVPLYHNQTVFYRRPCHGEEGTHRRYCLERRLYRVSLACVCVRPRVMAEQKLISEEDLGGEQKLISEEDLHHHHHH
# T4: rat IL-25 expressed with a C-terminal myc-myc-hexahistidine tag (rat)
# T4 construct: also called rat IL-25-MMH
# T4 chain: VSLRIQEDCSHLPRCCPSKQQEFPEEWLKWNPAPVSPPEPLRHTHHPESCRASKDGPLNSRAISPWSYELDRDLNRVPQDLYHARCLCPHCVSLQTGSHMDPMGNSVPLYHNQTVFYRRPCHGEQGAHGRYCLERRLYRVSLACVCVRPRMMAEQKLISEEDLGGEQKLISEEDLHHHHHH
# T5: rat IL-25 expressed with a C-terminal myc-myc-hexahistidine tag (rat)
# T5 construct: also called Rat IL-25-MMH
# T5 chain: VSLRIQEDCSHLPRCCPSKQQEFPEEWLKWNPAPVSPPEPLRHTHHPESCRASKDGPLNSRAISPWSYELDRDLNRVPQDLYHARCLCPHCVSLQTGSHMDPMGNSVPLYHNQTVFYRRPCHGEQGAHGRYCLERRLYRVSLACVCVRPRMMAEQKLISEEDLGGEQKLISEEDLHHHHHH
# T6: monkey IL-25 expressed with a C-terminal myc-myc-hexahistidine tag (M. fascicularis (cynomolgus monkey))
# T6 construct: also called Monkey IL-25-MMH; MfIL-25-MMH
# T6 chain: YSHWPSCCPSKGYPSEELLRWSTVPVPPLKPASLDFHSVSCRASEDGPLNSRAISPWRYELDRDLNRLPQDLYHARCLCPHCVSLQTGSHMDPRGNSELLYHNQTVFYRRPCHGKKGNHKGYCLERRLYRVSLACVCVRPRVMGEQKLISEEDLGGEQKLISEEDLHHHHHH
# T7: human IL-25 expressed with a C-terminal myc-myc-hexahistidine tag (human)
# T7 construct: also called hIL-25-MMH; Human IL-25-MMH
# T7 chain: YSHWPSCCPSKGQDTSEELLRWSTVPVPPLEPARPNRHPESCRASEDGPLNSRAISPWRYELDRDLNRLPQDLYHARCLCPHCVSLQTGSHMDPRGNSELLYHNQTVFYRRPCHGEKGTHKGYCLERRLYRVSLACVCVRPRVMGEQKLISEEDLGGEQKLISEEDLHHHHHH
# T8: mouse IL-25 expressed with a C-terminal myc-myc-hexahistidine tag (mouse)
# T8 construct: also called Mouse IL-25-MMH; mIL-25-MMH
# T8 chain: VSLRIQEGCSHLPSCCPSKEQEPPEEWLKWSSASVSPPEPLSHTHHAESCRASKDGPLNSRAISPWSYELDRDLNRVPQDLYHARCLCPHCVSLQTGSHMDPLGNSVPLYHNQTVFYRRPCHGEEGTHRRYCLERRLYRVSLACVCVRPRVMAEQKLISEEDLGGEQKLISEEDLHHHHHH
# How the values were obtained:
# [1] = biological target: T1, monkey IL-25 expressed with a …; assay: SPR Biacore, captured mAb, 25°C;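 as to 100 nM Human IL-25-MMH Bound (RU): biacore 4000 SPR with IL-25-MMH as analyte over purified anti-IL-25 antibodies, association and dissociation rates derived from fitting sensorgrams to a 1:1 binding model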;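 as to 100 nM Monkey IL-25-MMH Bound (RU): Real-time surface plasmon resonance on a Biacore 4000, with IL-25-MMH binding to purified anti-IL-25 antibodies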
# Procedure: (§1) Equilibrium dissociation constants (KD values) for IL-25 binding to purified anti-IL-25 antibodies were determined using a real-time surface plasmon resonance biosensor assay on a Biacore 4000 instrument (GE Healthcare). […] All the IL-25 reagents were expressed with a C-terminal myc-myc-hexahistidine tag (referred to herein as “IL-25-MMH”). […] Kinetic association (kₐ) and dissociation (kd) rate constants were determined by fitting the real-time sensorgrams to a 1:1 binding model using Scrubber 2.0c curve fitting software.
# [2] = biological target: T2, human IL-25 expressed with a C-terminal …; assay: SPR Biacore, captured mAb, 25°C;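 as to 100 nM Human IL-25-MMH Bound (RU): biacore 4000 SPR with IL-25-MMH as analyte over purified anti-IL-25 antibodies, association and dissociation rates derived from fitting sensorgrams to a 1:1 binding model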;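 as to 100 nM Monkey IL-25-MMH Bound (RU): Real-time surface plasmon resonance on a Biacore 4000, with IL-25-MMH binding to purified anti-IL-25 antibodies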
# [3] = biological target: T2, human IL-25 expressed with a C-terminal …; assay: SPR Biacore, captured mAb, 37°C
# [4] = biological target: T3, mouse IL-25 expressed with a C-terminal …; assay: SPR Biacore, captured mAb, 25°C and 37°C
# Procedure: as §1
# [5] = biological target: T4, rat IL-25 expressed with a C-terminal …; assay: SPR Biacore, captured mAb, 25°C and 37°C
# Procedure: as §1
# [6] = biological target: T5, rat IL-25 expressed with a C-terminal …; assay: SPR Biacore, antibody captured, 37C;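 as to 100 nM Monkey IL-25-MMH Bound (RU): biacore 4000 surface plasmon resonance biosensor measuring binding of IL-25-MMH to purified anti-IL-25 antibodies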;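 as to 100 nM Mouse IL-25-MMH Bound (RU): Real-time sensorgrams of IL-25-MMH binding to purified anti-IL-25 antibodies, rate constants obtained by fitting a 1:1 binding model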;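 as to Kd: biacore 4000 surface plasmon resonance biosensor measuring binding of IL-25-MMH to purified anti-IL-25 antibodies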
# Procedure: as §1
# [7] = biological target: T6, monkey IL-25 expressed with a …; assay: SPR Biacore, antibody captured, 37C;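 as to 100 nM Monkey IL-25-MMH Bound (RU): biacore 4000 surface plasmon resonance biosensor measuring binding of IL-25-MMH to purified anti-IL-25 antibodies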;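 as to 100 nM Mouse IL-25-MMH Bound (RU): Real-time sensorgrams of IL-25-MMH binding to purified anti-IL-25 antibodies, rate constants obtained by fitting a 1:1 binding model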
# [8] = biological target: T7, human IL-25 expressed with a C-terminal …; assay: BLI Octet, hIL-25-MMH captured on anti-Penta-His sensor, 25C
# Procedure: Binding competition between anti-IL-25 monoclonal antibodies was determined using a real time, label-free bio-layer interferometry assay on an Octet QK384 biosensor (Pall ForteBio Corp.).
# The biosensors were washed in HBST kinetics buffer in between every step of the experiment. The real-time binding response was monitored during the course of the experiment and the binding response at the end of every step was recorded.
# [9] = biological target: T7, human IL-25 expressed with a C-terminal …; assay: competition ELISA, 2 nM hIL-25-MMH binding to coated hIL-17RB-hFc; (*) below theoretical bottom of the assay
# Procedure: (§2) Data analysis was performed using a sigmoidal dose-response model within Prism™ software (GraphPad). […] The absorbance values of the wells containing the highest concentration for each antibody were used to determine the percent maximum blockade.
# [10] = biological target: T8, mouse IL-25 expressed with a C-terminal …; assay: SPR Biacore, antibody captured, 37C;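 as to 100 nM Monkey IL-25-MMH Bound (RU): biacore 4000 surface plasmon resonance biosensor measuring binding of IL-25-MMH to purified anti-IL-25 antibodies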;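 as to 100 nM Mouse IL-25-MMH Bound (RU): Real-time sensorgrams of IL-25-MMH binding to purified anti-IL-25 antibodies, rate constants obtained by fitting a 1:1 binding model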
# Procedure: as §1
# [11] = biological target: T7, human IL-25 expressed with a C-terminal …; assay: competition ELISA, 2 nM hIL-25-MMH binding to coated hIL-17RB-hFc
# Procedure: as §2
# [12] = biological target: T7, human IL-25 expressed with a C-terminal …; assay: cell-based or functional assay
# [13] = biological target: T6, monkey IL-25 expressed with a …; assay: cell-based or functional assay
# [14] = biological target: T5, rat IL-25 expressed with a C-terminal …; assay: SPR Biacore, antibody captured, 25C;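 as to 100 nM Rat IL-25-MMH Bound (RU): purified anti-IL-25 antibodies were tested by real-time surface plasmon resonance on a Biacore 4000, with rate constants obtained from sensorgram fits to a 1:1 binding model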
# [15] = biological target: T8, mouse IL-25 expressed with a C-terminal …; assay: SPR Biacore, antibody captured, 25C;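 as to 100 nM Rat IL-25-MMH Bound (RU): purified anti-IL-25 antibodies were tested by real-time surface plasmon resonance on a Biacore 4000, with rate constants obtained from sensorgram fits to a 1:1 binding model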
Binder,100 nM Human IL-25-MMH Bound (RU) [2] [RU],Kd [2] [nM],koff [2] [s⁻¹],kon [2] [M⁻¹ s⁻¹],t½ [2] [h],100 nM Human IL-25-MMH Bound (RU) [3] [RU],Kd [3] [nM],koff [3] [s⁻¹],kon [3] [M⁻¹ s⁻¹],t½ [3] [h],binding result [4],binding result [5],100 nM Rat IL-25-MMH Bound (RU) [6] [RU],100 nM Monkey IL-25-MMH Bound (RU) [7] [RU],Kd [7] [nM],koff [7] [s⁻¹],kon [7] [M⁻¹ s⁻¹],t½ [7] [h],50 ug/mL mAb-1 Binding (nm) [8] [nm],IC50 [9] [nM],further results
"H4H10900P (antibody, human IgG4, V domains shown) VH: QVQLQESGPGLVRPSETLSLICTVSGGSINSYYWSWIRQPPGKGLEWIGYIYYSGSTNYNPSLKSRVTISGDTSKNQFSLKLSSVTAADTAVYYCARGVIWNYELREFDYWGQGTLVTVSS VL: not shown",43,0.0158,2.75e-05,1.74e+06,7.02,51,0.035,9.91e-05,2.83e+06,1.95,no binding (tested: 100 nM),no binding (tested: 100 nM),,,,,,,,,100 nM Monkey IL-25-MMH Bound (RU) [1]: 45 RU; Kd [1]: 0.00402 nM; koff [1]: 1.18e-05 s⁻¹; kon [1]: 2.94e+06 M⁻¹ s⁻¹; t½ [1]: 16.3 h
"H2M11008N (antibody, V domains shown, also called H2aM11008N) VH: QVQLQESGPGLVKPSETLSLTCTVSGGSISSHYWSWIRQPPGKGLEWIGFIYYSGSTNFNPSLKSRVTISIDTSKNQFSLKLSSVTAADTAVYYCARHDYNDYELNYFDLWGRGTLASVSS VL: not shown",48,0.435,0.00021,482000,0.917,60,1.08,0.000793,734000,0.25,no binding (tested: 100 nM),no binding (tested: 100 nM),,,,,,,,,

# Second part, led by results:
100 nM Human IL-25-MMH Bound (RU) [2] [RU],Kd [2] [nM],koff [2] [s⁻¹],kon [2] [M⁻¹ s⁻¹],t½ [2] [h],100 nM Human IL-25-MMH Bound (RU) [3] [RU],Kd [3] [nM],koff [3] [s⁻¹],kon [3] [M⁻¹ s⁻¹],t½ [3] [h],binding result [4],binding result [5],100 nM Rat IL-25-MMH Bound (RU) [6] [RU],100 nM Monkey IL-25-MMH Bound (RU) [7] [RU],Kd [7] [nM],koff [7] [s⁻¹],kon [7] [M⁻¹ s⁻¹],t½ [7] [h],50 ug/mL mAb-1 Binding (nm) [8] [nm],IC50 [9] [nM],Binder,further results
,,,,,,,,,,,,1,64,0.0464,0.000165,3.55e+06,1.17,0.67,0.23,"H4H10901P (antibody, human IgG4, V domains shown, H4H prefix = human IgG4 Fc) VH: QLQLQESGPGLVRPSETLSLTCSVSSGSIRSSNYYWGWIRQPPGKGLEWIGNIYYSGNTFYNPSLKGRVTISVDTSKNQFSLKLSSVTATDTAVYYCARQGYSDYELNWFDPWGQGTLVTVSS VL: DIVMTQSPDSLVLSLGERATFNCKSSQSVLDSSNNKNYLAWYQQKPGQPPKLLIYWASTRESGVPDRFSGSGSGTDFSLTISSLQAEDVALYYCQQFYNSPWTFGQGTKVEIK","100 nM Mouse IL-25-MMH Bound (RU) [10]: 2 RU; % Maximum blocking of 200 nM antibody [11]: 91%; IC50, luciferase reporter cells, 5 pM hIL-25-MMH [12]: 5.6e-11 M; IC50, luciferase reporter cells, 12 pM MfIL-25-MMH [13]: 3.8e-11 M; 100 nM Rat IL-25-MMH Bound (RU) [14]: 0 RU; binding result [14]: no binding (tested: 100 nM); 100 nM Mouse IL-25-MMH Bound (RU) [15]: 1 RU; binding result [15]: no binding (tested: 100 nM)"
,,,,,,,,,,,,3,73,0.0431,0.00013,3.01e+06,1.48,0.88,0.14,"H4H10906P (antibody, human IgG4, V domains shown, H4H prefix = human IgG4 Fc) VH: QVQLQESGPGLVKPSETLSLTCTVSGGSISSYYWSWIRQPPGKGLEWIGFIYYSGSTNYNPSLKSRVTISVDTSKNQFSLKLSSVTAADTAVYYCARHDSDYELYGMDVWGQGTTVTVSS VL: not shown","100 nM Mouse IL-25-MMH Bound (RU) [10]: 2 RU; % Maximum blocking of 200 nM antibody [11]: 89%; IC50, luciferase reporter cells, 5 pM hIL-25-MMH (second assay day) [12]: 2.7e-11 M; IC50, luciferase reporter cells, 12 pM MfIL-25-MMH [13]: 4.7e-11 M; 100 nM Rat IL-25-MMH Bound (RU) [14]: 2 RU; binding result [14]: no binding (tested: 100 nM); 100 nM Mouse IL-25-MMH Bound (RU) [15]: 1 RU; binding result [15]: no binding (tested: 100 nM)"
